# Entries after “also recorded” stand apart in the source; their conditions may differ.
# B1: IL-12: Recombinant murine interleukin 12, heterodimeric cytokine (p35+p40), purchased from R&D Systems or PeproTech (protein, UniProt P43431 23-215; P43432 23-335, looked up)
# Interleukin-12 subunit alpha: RVIPVSGPARCLSQSRNLLKTTDDMVKTAREKLKHYSCTAEDIDHEDITRDQTSTLKTCLPLELHKNESCLATRETSSTTRGSCLPPQKTSLMMTLCLGSIYEDLKMYQTEFQAINAALQNHNHQQIILDKGMLVAIDELMQSLNHNGETLRQKPPVGEADPYRVKMKLCILLHAFSTRVVTINRVMGYLSSA
# Interleukin-12 subunit beta: MWELEKDVYVVEVDWTPDAPGETVNLTCDTPEEDDITWTSDQRHGVIGSGKTLTITVKEFLDAGQYTCHKGGETLSHSHLLLHKKENGIWSTEILKNFKNKTFLKCEAPNYSGRFTCSWLVQRNMDLKFNIKSSSSSPDSRAVTCGMASLSAEKVTLDQRDYEKYSVSCQEDVTCPTAEETLPIELALEARQQNKYENYSTSFFIRDIIKPDPPKNLQMKPLKNSQVEVSWEYPDSWSTPHSYFSLKFFVRIQRKKEKMKETEEGCNQKGAFLVEKTSTEVQCKGGNVCVQAQDRYYNSSCSKWACVPCRVRS
# Columns and labels:
# lethally irradiated mice = test: Radioprotection assay: survival of mice after total body lethal irradiation; assay type: in vivo, mice (C57BL/6J); details: for animals with long-term survival (more than one year): 100 ng/mouse (5 ug/Kg)
# Method: Mice received recombinant murine IL-12 (100 ng/mouse (which is about 5 ug/kg on average), intravenous injection) before (24 hours) or after (1 hour) lethal dose radiation (1000 rad). Mice in control group received equal volume of PBS buffer. Survival rate were analyzed by Kaplan-Meier method and p value was calculated using Log Rank Test.
# To determine the minimum effective radioprotective dose of IL-12, different dose of IL-112 were administered to lethally irradiated animals before (24 hours before) or post (within one hour) lethal dose ionizing radiation.
# IL-12 was administrated to mice at different doses 24 hours before radiation to determine if there is a dose dependent relationship between the concentration of IL-12 administration and survival from lethal irradiation.
# To further explore the relationship of IL-12 hematopoietic rescue effect as it may relate to the time of administration, IL-12 was administrated to lethally irradiated animals at different time before and after the radiation. The following time points were tested: −48, −36, −24, and −12 hours before radiation, or +1, +12, +24, and +36 hours post radiation.
# A study was conducted to determine if the radioprotective effect of IL-12 administration is specific and INF- ? independent. […] Also, an assessment was made to determine if there was a synergistic effect between GM-CSF and IL-12.
# Mice were provided with acid water for one week before the radioprotection assay. Cytokines, diluted in phosphate buffered saline (PBS), pH 7.4, were intravenously injected into mice before or after total body lethal irradiation (TBI) at the specified times. Control group mice were injected with PBS buffer. For TBI, mice were either exposed twice to ionizing irradiation ( ? -ray from Cesium 137) at 500 rad dose with a 3 hour interval, or one time at a dose of 1000 rad in a Gammacell 40 machine from Atomic Energy of Canada LTD (Kanafa, Ontario, Canada). The ? -ray exposure rate is 1 Gy/min. […] After irradiation, mice were given water containing antibiotics. For the survival curve, the Kaplan-Meier method was used. Each experiment was repeated three or more times.
# peripheral blood cells = test: Peripheral blood cell counts after lethal or sublethal irradiation; assay type: in vivo, mice (C57BL/6J)
# From the text: After lethal dose radiation (10 Gy), the full blood cell count dropped to lowest point for both IL-12 treated and non-treated mice. However, 11-12 treated mice start to recover at day 14 post radiation while the control animals died out. It is noteworthy that the recovery is multi-lineage, including white blood cell, red blood cell and platelets.
# Here too, the recovery is broad range and encompasses all blood lineages and blood cell types. […] This effect is somewhat better when IL-12 was administrated 24 hours before radiation than IL-12 administrated after radiation.
# For peripheral blood cell counts, 6-8 week old female C57BL/6J mice received an i.v. injection of IL-12 before or after lethal (1000 rad) or sub-lethal (500 rad) irradiation. 10 ul blood was taken from the tail to do blood cell count analyses in a MASCOT Multispecies Hematology Systems (CDC Technologies, Oxford, Conn.) at different days after irradiation. Each group had at least 3 mice.
# [1] = tested on: long-term repopulating HSC; test: Secondary bone marrow transplantation of IL-12 rescued marrow; assay type: in vivo, mice (Ly5.2 donor, Ly5.1 recipient); details: donor derived T/B and M/G cells detected
# From the text: FIG. 5D-F: Secondary bone marrow transplantation was employed to detect if IL-12 can protect long-term repopulating HSC. Six month after lethal dose radiation and IL-12 rescue, bone marrow cells from these mice (Ly 5.2) were isolated and transplanted to secondary lethally irradiated mice (Ly 5.1). Four months after transplantation, donor cells (Ly5.2) were examined in recipient's peripheral blood.
# The following gives some further experimental details. Six months after the rescue from lethal dose radiation (IL-12 treated mice, C57BL/Ly5.2), whole bone marrow cells were isolated and 1×10^6 cells were transplanted to secondary lethally irradiated mice (C57BL/Ly5.1). 4 months after transplantation, blood cells were collected and stained with anti-Ly5.2 and anti-Mac-1/anti-Gr-lantibodies (5D), and anti-Ly5.2 and anti-CD3/anti-B220 antibodies (5E) and anti-Ly5.2 antibody (5F). […]
# Ly5.2 strain mice rescued by IL-112 treatment before or after lethal irradiation were sacrificed after 6 months. […] 4 months after the transplantation, peripheral blood cells were analyzed for Ly5.2 cells (anti-Ly5.2 antibody conjugated with FITC) with T cell and B cell markers (anti-CD3 and anti-B220 antibody conjugated with PE) and with macrophage and granulocyte cell markers (anti-CD11b and anti-Gr1 antibody conjugated with PE) using FACS. […]
# [2] = cytokine given 1 hour post lethal dose radiation
molecule,measurement,setting,value
B1,animals with long-term survival (more than one year),lethally irradiated mice; 24 hours before lethal radiation,95%
same,animals with long-term survival (more than one year),lethally irradiated mice; post lethal radiation,75%
same,"survival difference versus control (Kaplan-Meier, Log Rank Test)","lethally irradiated mice; 100 ng/mouse i.v., 24 hours before or 1 hour after 1000 rad, p<0.001",statistically significant; also recorded: significant better survival
same,Survives (30 days),"lethally irradiated mice; IL-12 dose 5 ng/mouse, 24 hours before radiation, 5 mice",0
same,Survival rate (%),"lethally irradiated mice; IL-12 dose 5 ng/mouse, 24 hours before radiation, 30 days",0%
same,Survives (30 days),"lethally irradiated mice; IL-12 dose 10 ng/mouse, 24 hours before radiation, 5 mice",0
same,Survival rate (%),"lethally irradiated mice; IL-12 dose 10 ng/mouse, 24 hours before radiation, 30 days",0%
same,Survives (30 days),"lethally irradiated mice; IL-12 dose 25 ng/mouse, 24 hours before radiation, 5 mice",2
same,Survival rate (%),"lethally irradiated mice; IL-12 dose 25 ng/mouse, 24 hours before radiation, 30 days",40%
same,Survives (30 days),"lethally irradiated mice; IL-12 dose 50 ng/mouse, 24 hours before radiation, 5 mice",3
same,Survival rate (%),"lethally irradiated mice; IL-12 dose 50 ng/mouse, 24 hours before radiation, 30 days",60%
same,Survives (30 days),"lethally irradiated mice; IL-12 dose 100 ng/mouse, 24 hours before radiation, 5 mice",4
same,Survival rate (%),"lethally irradiated mice; IL-12 dose 100 ng/mouse, 24 hours before radiation, 30 days",80%
same,Survives (30 days),"lethally irradiated mice; IL-12 dose 200 ng/mouse, 24 hours before radiation, 5 mice",3
same,Survival rate (%),"lethally irradiated mice; IL-12 dose 200 ng/mouse, 24 hours before radiation, 30 days",60%
same,Survival rate (%),lethally irradiated mice; [2],80%
same,radioprotective effect,lethally irradiated mice; [2],only cytokine tested that can protect mice from lethal dose radiation
same,Survives,"lethally irradiated mice; cytokine given 1 hour post lethal dose radiation, 4-5 mice per group",4
same,survival at higher dose,lethally irradiated mice; higher dose (up to 50 ug/kg) compared with 5 ug/kg,did not yield greater survival
same,Survival rate (%),lethally irradiated mice; injection 1 hr after lethal irradiation,80%
same,Survives,"lethally irradiated mice; injection 1 hr after lethal irradiation, 5 mice",4
same,Survival rate (%),lethally irradiated mice; injection 12 hrs after lethal irradiation,0%
same,Survives,"lethally irradiated mice; injection 12 hrs after lethal irradiation, 5 mice",0
same,Survival rate (%),lethally irradiated mice; injection 12 hrs before lethal irradiation,20%
same,Survives,"lethally irradiated mice; injection 12 hrs before lethal irradiation, 10 mice",2
same,Survival rate (%),lethally irradiated mice; injection 24 hrs after lethal irradiation,20%
same,Survives,"lethally irradiated mice; injection 24 hrs after lethal irradiation, 10 mice",2
same,Survival rate (%),lethally irradiated mice; injection 24 hrs before lethal irradiation,100%
same,Survives,"lethally irradiated mice; injection 24 hrs before lethal irradiation, 10 mice",10
same,Survival rate (%),lethally irradiated mice; injection 36 hrs after lethal irradiation,0%
same,Survives,"lethally irradiated mice; injection 36 hrs after lethal irradiation, 5 mice",0
same,Survival rate (%),lethally irradiated mice; injection 36 hrs before lethal irradiation,0%
same,Survives,"lethally irradiated mice; injection 36 hrs before lethal irradiation, 10 mice",0
same,Survival rate (%),lethally irradiated mice; injection 48 hrs before lethal irradiation,0%
same,Survives,"lethally irradiated mice; injection 48 hrs before lethal irradiation, 10 mice",0
same,best administration time for radioprotection,lethally irradiated mice; lethal dose radiation,24 hours before or 1 hour post radiation
same,optimal radioprotective dose (best survival rate),"lethally irradiated mice; mice, lethal dose radiation",5 µg/kg
same,time to reach normal blood cell count,peripheral blood cells; lethal dose radiation (10 Gy),about 30 days post radiation
same,day at which blood cell counts start to recover,"peripheral blood cells; lethal dose radiation (10 Gy), 100 ng/mouse",≤ 14 day post radiation
same,day at which blood cell counts start to recover,"peripheral blood cells; lethal dose radiation (10 Gy), 100 ng/mouse, listed as 11-12",14 day post radiation
same,blood cell count recovery versus control,"peripheral blood cells; sublethal radiation (500 rad), 100 ng/mouse",accelerates the blood cell count recovery
same,"red blood cell, platelet, white blood cell and monocyte versus control","peripheral blood cells; sublethal radiation (500 rad), day 5 and 8 post radiation, p<0.05",statistically higher
same,protection of long-term repopulating cells,[1],protects long-term repopulating cells
